Results: the supplement of paper PMC10567573

B1: NP_009172.2 (parent)
chain: LPALFTDLYSQEITAEEAREALP
B2: ZNF8 (parent)
chain: KPYTCSVCGKSFSRTTCLFLHLRT

Variants of: B1
Assay: protein stability index of a GFP-peptide fusion (GPS, HEK-293T) (PSI 1-6); higher = more stable
Details: c terminus: native

Row | Variant | protein stability index
1 | A18V | 2.71
2 | A18Q | 2.86
3 | A18L | 2.51
4 | A18P | 3.08
5 | A18N | 2.75
6 | A18R | 2.45
7 | A18S | 2.72
8 | A18Y | 2.35
9 | A18M | 2.75
10 | A18T | 3.04
11 | A18W | 2.67
12 | E20A | 2.41
13 | E20R | 1.98
14 | E20P | 2.86
15 | E20Q | 2.22
16 | E20V | 2.6
17 | E20G | 2.11
18 | E20M | 2.39
19 | E20I | 2.32
20 | E20K | 2.42
21 | E20H | 2.27
22 | E20N | 2.2
23 | E20L | 2.51
24 | E20S | 2.28
25 | E20W | 2.42
26 | E20D | 2.65
27 | E20Y | 3.08

Row | Variant | protein stability index
28 | E20F | 2.43
29 | E20C | 2.38
30 | A21L | 2.26
31 | A21W | 2.19
32 | A21S | 2.7
33 | A21R | 2.02
34 | A21E | 3.6
35 | A21H | 2.29
36 | A21V | 2.16
37 | A21Y | 2.3
38 | A21K | 2.46
39 | A21C | 2.46
40 | A21F | 2.31
41 | A21I | 2.4
42 | A21M | 2.23
43 | A21D | 3.67
44 | A21G | 2.81
45 | A21N | 2.6
46 | A21P | 2.69
47 | A21T | 2.85
48 | A21Q | 2.46
49 | R19I | 2.45
50 | R19K | 2.79
51 | R19Y | 2.53
52 | R19T | 2.9
53 | R19V | 2.8
54 | R19P | 2.93

Row | Variant | protein stability index
55 | R19E | 2.81
56 | R19N | 2.71
57 | R19L | 2.47
58 | R19C | 2.93
59 | R19G | 2.96
60 | R19A | 2.75
61 | R19F | 2.68
62 | R19M | 2.59
63 | R19S | 2.89
64 | R19Q | 2.75
65 | R19D | 3
66 | R19W | 2.56
67 | R19H | 2.82
68 | L22R | 4.15
69 | L22Q | 3.01
70 | L22E | 2.69
71 | L22F | 3.49
72 | L22T | 3.44
73 | L22Y | 3.49
74 | L22S | 3.59
75 | L22K | 4.93
76 | L22A | 3.54
77 | L22D | 4.62
78 | L22M | 2.44
79 | L22P | 3.63
80 | L22C | 2.65
81 | L22I | 2.37

Row | Variant | protein stability index
82 | L22H | 3.44
83 | L22V | 3.17
84 | L22G | 2.88
85 | L22W | 2.67
86 | L22N | 4.7
87 | P23G | 4.69
88 | P23Y | 3.49
89 | P23M | 2.27
90 | P23A | 4.14
91 | P23N | 4.89
92 | P23D | 5.15
93 | P23W | 3
94 | P23K | 4.82
95 | P23V | 4.18
96 | P23I | 3.59
97 | P23H | 4.15
98 | P23E | 5
99 | P23F | 3.94
100 | P23R | 2.83
101 | P23Q | 4.85
102 | P23C | 4.21
103 | P23L | 4.01
104 | P23T | 4.6
105 | P23S | 4.8

Variants of: B2
Assay: as above
Details: c terminus: a fixed tail appended

Row | Variant | protein stability index
106 | S6Q | 2.13
107 | S6P | 2.25
108 | S6G | 2.48
109 | S6T | 1.73
110 | S6Y | 1.6
111 | S6D | 2.28
112 | S6N | 2.39
113 | S6R | 2.14
114 | S6K | 2.46
115 | S6V | 2.45
116 | S6H | 2.15
117 | S6I | 1.41
118 | P2E | 2.55
119 | P2K | 2.05
120 | P2T | 2.19
121 | P2F | 1.48
122 | P2S | 2.72
123 | P2I | 2.08
124 | P2W | 2.42
125 | P2L | 1.74
126 | P2A | 2.24
127 | P2H | 2.5
128 | L22T | 2.1
129 | L22V | 1.85
130 | L22D | 2.04
131 | L22I | 1.96

Row | Variant | protein stability index
132 | L22H | 1.81
133 | L22S | 2.11
134 | L22R | 2.34
135 | K10N | 2
136 | K10I | 1.65
137 | K10P | 2.84
138 | K10F | 1.85
139 | K10E | 1.47
140 | K10L | 1.94
141 | K10H | 1.86
142 | K10Q | 2.18
143 | K10R | 1.87
144 | K10A | 1.79
145 | T4F | 1.9
146 | T4Q | 1.49
147 | T4R | 2.4
148 | T4E | 1.77
149 | T4N | 1.67
150 | T4A | 1.43
151 | T4Y | 1.63
152 | T4P | 1.86
153 | T4S | 1.48
154 | T4L | 2.19
155 | T24M | 2.44
156 | T24P | 2.19
157 | T24H | 2.96

Row | Variant | protein stability index
158 | T24R | 2.04
159 | T24W | 2.5
160 | T15G | 1.54
161 | T15D | 2.9
162 | T15E | 2.64
163 | T15N | 2.02
164 | T15A | 2.45
165 | T15R | 2.58
166 | T15S | 2.4
167 | T15M | 2.73
168 | T15L | 2.29
169 | S13E | 2.57
170 | S13K | 2.06
171 | S13V | 2.15
172 | S13W | 1.87
173 | S13T | 1.86
174 | S13F | 1.82
175 | S13R | 2
176 | S13P | 2.16
177 | S13L | 1.48
178 | S13M | 1.88
179 | S13D | 1.94
180 | R14P | 2.45
181 | R14T | 3.19
182 | R14K | 2.12
183 | R14E | 2.7

Row | Variant | protein stability index
184 | R14G | 1.89
185 | R14N | 3.12
186 | R14M | 1.68
187 | R14F | 1.6
188 | R14Y | 1.93
189 | R14V | 3.3
190 | R14C | 3.41
191 | S11T | 2.2
192 | S11C | 1.91
193 | S11M | 1.76
194 | S11Q | 2.21
195 | S11V | 1.84
196 | S11R | 2.12
197 | S11H | 3.04
198 | S11W | 1.71
199 | S11D | 1.88
200 | S11E | 2.67
201 | S11F | 1.72
202 | T16S | 2.17
203 | T16E | 2.25
204 | T16F | 1.39
205 | T16C | 1.94
206 | T16G | 2.6
207 | T16N | 2.73
208 | R23N | 1.75
209 | R23K | 2.06

Row | Variant | protein stability index
210 | R23V | 2
211 | R23Y | 1.84
212 | R23G | 1.9
213 | R23T | 1.95
214 | R23C | 2.06
215 | R23F | 1.64
216 | R23Q | 2.59
217 | C17Q | 2.58
218 | C17P | 1.91
219 | C17W | 1.5
220 | C17S | 1.84
221 | C17L | 2.39
222 | C17T | 2.42
223 | C17V | 1.85
224 | C17K | 2.35
225 | C17Y | 2.15
226 | C17F | 1.92
227 | C17G | 2.22
228 | Y3A | 1.63
229 | Y3L | 2.19
230 | Y3S | 1.74
231 | Y3E | 1.76
232 | Y3D | 2.07
233 | Y3R | 1.76
234 | Y3V | 2.1
235 | Y3F | 1.4

Row | Variant | protein stability index
236 | Y3P | 1.69
237 | Y3W | 1.7
238 | Y3N | 1.71
239 | Y3Q | 2.01
240 | Y3M | 2.3
241 | C5M | 2.18
242 | C5E | 3.3
243 | C5I | 3.17
244 | C5Y | 2.21
245 | C5Q | 2.29
246 | C5P | 2.38
247 | C5L | 3.52
248 | C5T | 3.19
249 | C5A | 1.97
250 | L20E | 3.07
251 | L20G | 2.1
252 | L20K | 2.32
253 | L20F | 2.14
254 | L20S | 2.17
255 | L20M | 1.74
256 | L20D | 2.11
257 | L20I | 1.99
258 | L20N | 2.56
259 | L20W | 1.39
260 | C8W | 2.5
261 | C8S | 3.95

Row | Variant | protein stability index
262 | C8L | 2.28
263 | C8I | 2.07
264 | C8E | 3.46
265 | C8M | 2.19
266 | C8A | 2.56
267 | F12T | 1.37
268 | F12G | 2.27
269 | F12I | 3.27
270 | F12R | 1.62
271 | F12S | 1.87
272 | F12H | 2.35
273 | F12V | 1.73
274 | F12E | 1.77
275 | F12M | 2.45
276 | F12K | 2.88
277 | F12P | 1.75
278 | K1V | 1.72
279 | K1L | 2.27
280 | K1R | 2.26
281 | K1D | 2.46
282 | K1P | 1.91
283 | K1Q | 2.39
284 | K1C | 2.08
285 | K1F | 2.19
286 | K1T | 1.67
287 | K1E | 2.19

Row | Variant | protein stability index
288 | F19E | 2.57
289 | F19N | 2.36
290 | F19H | 2.26
291 | F19L | 1.73
292 | F19Q | 2.54
293 | F19G | 1.93
294 | F19D | 2.79
295 | F19T | 1.78
296 | F19R | 2.35
297 | F19C | 3.11
298 | F19V | 1.9
299 | F19I | 1.91
300 | F19K | 1.93
301 | V7P | 2.7
302 | V7S | 2.04
303 | V7A | 2.12
304 | V7F | 2.8
305 | V7Q | 3.32
306 | V7Y | 2.3
307 | V7L | 2.87
308 | V7T | 1.91
309 | V7D | 1.71
310 | H21Y | 1.57
311 | H21F | 1.65
312 | H21L | 2.39
313 | H21S | 2.04

Row | Variant | protein stability index
314 | H21P | 2.01
315 | H21M | 2.16
316 | H21C | 2.37
317 | G9N | 1.49
318 | G9Y | 1.97
319 | G9Q | 1.89
320 | G9R | 2.2
321 | G9L | 2.25
322 | G9D | 1.8
323 | G9S | 1.72
324 | G9P | 1.72
325 | G9I | 2.92
326 | G9M | 2.38
327 | L18Q | 2.11
328 | L18I | 2.49
329 | L18G | 2.44
330 | L18N | 2.49
331 | L18K | 2.9
332 | L18S | 1.89
333 | L18V | 2.27
334 | L18F | 1.95
